Data from paper PMC10876215, “Nucleosome conformation dictates the histone code” (eLife, 2024).
Like-named read-outs stand apart in the source and are kept apart here. Blank lines part the entries; values can stand above or below the substance they belong to.

What was measured:
[1] = test system: GST-PHD^W2891A-BD (GST-PHD^mut-BD); assay type: binding, Human; settings: for binding: NCPs
Description: (§1) Human BPTF (Uniprot Q12830) PHD finger-bromodomain (PHD-BD) and PHD finger were cloned into pGEX6p with an N-terminal Glutathione S-Transferase (GST) tag and a PreScission protease cleavage site (Supplementary file 2A and Figure 1—figure supplement 2). BPTF BD with an N-terminal 6xHistidine (6His) tag and Tobacco Etch Virus (TEV) protease cleavage site was from Addgene (plasmid 39111). The Q5 site-directed mutagenesis kit (New England Biolabs [NEB]) was used for domain addition/removal or single amino acid substitutions. All constructs were expressed in E. coli BL21 (DE3) (Thermo Fisher Scientific or NEB). Cells were grown to OD600 ~1.0 and induced with 0.8 mM IPTG at 18 °C for ~16 hr in LB (or M9 minimal media for NMR). M9 media was supplemented with vitamin (Centrum Adult), 1 g/L ^15NH4Cl, and 5 g/L D-glucose. For constructs containing the BPTF PHD finger all growth media and buffers were supplemented with 100 μM ZnCl2. For purification of BPTF recombinants cells were lysed by sonication, and lysates were incubated with either glutathione agarose (Thermo Fisher Scientific) or Ni-NTA resin (Thermo Fisher Scientific) to respectively enrich for GST- and 6His-tagged proteins. Fusion proteins were eluted with reduced L-glutathione or imidazole as appropriate. For NMR, samples were cleaved from the GST tag using PreScission protease. All BPTF proteins were then further purified using anion exchange (Source 15Q, GE Healthcare Life Sciences) and size exclusion chromatography (SEC; Superdex 75, GE Healthcare Life Sciences). Protein concentrations were determined by UV-Vis spectroscopy.
The dCypher approach (dCypher for brevity) was developed on the chemiluminescent bead-based, no-wash Alpha platform (PerkinElmer) for the high-throughput profiling of CAP binding to PTM-defined histone peptides and semi-synthetic nucleosomes (homotypic NCPs unless stated otherwise) ([Marunde et al., 2022a]; [Morgan et al., 2021]; [Weinberg et al., 2019]; [Dilworth et al., 2022]; [Weinberg et al., 2021]; [Jain et al., 2020]; [Lloyd et al., 2020]). […]

BPTF BD (6His-tagged) [2] = target: T1, BPTF BD (6His-tagged) (Homo sapiens, UniProt Q12830); test: dCypher binding assay, NCPs, 6His-BD Query
T1 construct: Q12830 (2914-3037); host or cells: E. coli BL21 (DE3)
Description: Human BPTF (Uniprot Q12830) PHD finger-bromodomain (PHD-BD) and PHD finger were cloned into pGEX6p with an N-terminal Glutathione S-Transferase (GST) tag and a PreScission protease cleavage site (Supplementary file 2A and Figure 1—figure supplement 2). BPTF BD with an N-terminal 6xHistidine (6His) tag and Tobacco Etch Virus (TEV) protease cleavage site was from Addgene (plasmid 39111). The Q5 site-directed mutagenesis kit (New England Biolabs [NEB]) was used for domain addition/removal or single amino acid substitutions. All constructs were expressed in E. coli BL21 (DE3) (Thermo Fisher Scientific or NEB). […] Protein concentrations were determined by UV-Vis spectroscopy.
The dCypher approach (dCypher for brevity) was developed on the chemiluminescent bead-based, no-wash Alpha platform (PerkinElmer) for the high-throughput profiling of CAP binding to PTM-defined histone peptides and semi-synthetic nucleosomes (homotypic NCPs unless stated otherwise) ([Marunde et al., 2022a]; [Morgan et al., 2021]; [Weinberg et al., 2019]; [Dilworth et al., 2022]; [Weinberg et al., 2021]; [Jain et al., 2020]; [Lloyd et al., 2020]). […] The plate was incubated at room temperature in subdued lighting for 60 min and the Alpha signal was measured on a PerkinElmer 2104 EnVision (680 nm laser excitation, 570 nm emission filter ± 50 nm bandwidth). […]

BPTF PHD (6His-tagged) = target: T2, BPTF PHD (6His-tagged) (Homo sapiens, UniProt Q12830); test: dCypher binding assay, histone peptides, 6His-PHD Query; settings: Table (Ext. Figure 2A), 4PL fit, H3 1-20 top constrained (426889)
T2 construct: Q12830 (2865-2924); made in house; host or cells: E. coli BL21 (DE3)
Description: as §1, with “For NMR, samples were cleaved from the GST tag using PreScission protease. All BPTF proteins were then further purified using anion exchange (Source 15Q, GE Healthcare Life Sciences) and size exclusion chromatography (SEC; Superdex 75, GE Healthcare Life Sciences).” left out, “spectroscopy. […]” for “spectroscopy.”

BPTF PHD-BD (GST-tagged) [3] = target: T3, BPTF PHD-BD (GST-tagged) (Homo sapiens, UniProt Q12830); test: dCypher binding assay, histone peptides, GST-PHD-BD Query
T3 construct: Q12830 (2865-3036); made in house; host or cells: E. coli BL21 (DE3)
Description: as §1, with “For NMR, samples were cleaved from the GST tag using PreScission protease. All BPTF proteins were then further purified using anion exchange (Source 15Q, GE Healthcare Life Sciences) and size exclusion chromatography (SEC; Superdex 75, GE Healthcare Life Sciences).” left out, “spectroscopy. […]” for “spectroscopy.”

BPTF BD (6His-tagged) [4] = target: T1, BPTF BD (6His-tagged); test: dCypher binding assay, histone peptides, 6His-BD Query; settings: Table (Ext. Figure 2A), 4PL fit, top constrained (496106)
Description: as §1, with “For NMR, samples were cleaved from the GST tag using PreScission protease. All BPTF proteins were then further purified using anion exchange (Source 15Q, GE Healthcare Life Sciences) and size exclusion chromatography (SEC; Superdex 75, GE Healthcare Life Sciences).” left out, “spectroscopy. […]” for “spectroscopy.”

BPTF PHD-BD (GST-tagged) [5] = target: T3, BPTF PHD-BD (GST-tagged); test: dCypher binding assay, NCPs, GST-PHD-BD Query
Description: as §1, with “For NMR, samples were cleaved from the GST tag using PreScission protease. All BPTF proteins were then further purified using anion exchange (Source 15Q, GE Healthcare Life Sciences) and size exclusion chromatography (SEC; Superdex 75, GE Healthcare Life Sciences).” left out, “spectroscopy. […]” for “spectroscopy.”

[6] = test system: 21 bp double-stranded DNA; test: NMR titration (1H-15N HSQC) of 15N-H4 tail peptide with dsDNA; assay type: binding; settings: 30 μM peptide; DNA ratios up to 1:3; 20 mM MOPS pH 7.2, 150 mM KCl, 25 °C
Description: The histone H4 tail (residues 1–25 followed by a C-terminal tyrosine for quantification) was expressed from pGEX6p as a fusion with an N-terminal GST tag followed by a PreScission protease cleavage site (Supplementary file 2A). This was overexpressed in E. coli BL21 (DE3) (NEB) grown in M9 minimal media supplemented with vitamin (Centrum daily multivitamin), 1 g/L ^15NH4Cl, and 5 g/L D-glucose. Cells were grown to OD600 ~1.0 and induced with 0.5 mM IPTG at 37 °C for 4 hr. The ^15N-GST-H4 peptide fusion was purified on glutathione agarose resin (Thermofisher Scientific), cleaved with PreScission protease (16 hr at 4 °C), and products resolved by SEC (Superdex 75 10/300; GE Healthcare Life Sciences). […] Acquisition and deconvolution software used during data collection and analysis were MassLynx and MaxEnt, respectively. ^15N-H4 (1-25) peptide concentration was determined by UV-vis spectroscopy using the non-native C-terminal tyrosine.
Oligonucleotides (5’-[…]-3’ and the complement 5’-[…]-3’) for DNA titration NMR were from Integrated DNA Technologies (IDT). […] Duplex DNA was purified on a source 15Q column (GE Healthcare Life Sciences) and analyzed by 1% agarose gel. DNA was precipitated in ethanol, resuspended in ddH2O, and concentration was determined by UV-vis and the predicted extinction coefficient (ε260=333,804.5 M^–1 cm^–1). […]

Substance: H3K4me3tri^ac: histone H3 peptide H3K4me3K9acK14acK18ac (NMR version aa 1–34)
binding ([1]; Figure 2B lower, PHDmut-BD W2891A): no binding | binding to NCPs (in words) ([1]; GST-PHD^mut-BD): lost binding | binding ([1]; Table (Figure 2C), PHDmut-BD): no binding | binding (BPTF BD (6His-tagged) [2]; Ext. Figure 2G, 6His BD): no binding | binding (BPTF BD (6His-tagged) [2]; Table (Ext. Figure 2B), 6His-BD): no binding | Log EC50rel (BPTF PHD (6His-tagged)): -7.000 M | preference over peptides containing each PTM class alone (in words) (BPTF PHD-BD (GST-tagged) [3]): no preference | Log EC50rel (BPTF BD (6His-tagged) [4]): -5.811 M | preference over H3K4me3 or H3tetra^ac (BPTF PHD-BD (GST-tagged) [5]): > 20 fold

DNA binding by CSPs (in words) [6]: the H4 tail bound DNA
Substance: ^15N-H4 (1-25) peptide: histone H4 tail residues 1–25 followed by a C-terminal tyrosine, recombinant
